This is an account of results in PMC10163220.

As a reminder, the stoichiometry N is the number of molecules, sites or subunits per partner or assembly.

Assay [1] has as its target ZIKV NS4A N-terminal peptide construct (residues 4–58) with N-terminal His-tag and linker (Zika virus (strain MR-766)). As to the kind of experiment: AUC; sedimentation equilibrium; approx. 10, 20 and 40 µM in 50 mM Tris–HCl pH 7.3, 150 mM NaCl; 23,000, 28,000, 34,500 and 42,000 rpm; 280 nm; self-equilibrium models in SEDPHAT, monomer to dimer to trimer.
Assay [2] shares this target. As to the kind of experiment: AUC; sedimentation velocity; 50 mM Tris–HCl (pH 7.4), approx. 3–300 µM, 50,000 rpm, 20 °C, absorbance at 230 or 280 nm; c(s), c(s,ff0) and hybrid local continuous global discrete (non-interacting) analysis; no detergent or lipids.

Regarding “ZIKV NS4A N-terminal peptide construct (residues 4–58) with N-terminal His-tag and linker”, the percent of monomers in trimers at 50 µM in assay [1] stood at 50%. Also, the stoichiometry N in assay [1] and in assay [2] was 3 throughout.
